From patent US6306622, “cDNA encoding a BMP type II receptor” (The Procter & Gamble Co., dated 2001)
Several values for one entry are separate records, joined by “and”; a condition that tells them apart may be missing. Equal entries are not always repeated.

T1: [^125 I]-BMP-4 (Homo sapiens (Human), UniProt P12644, 125I label (iodinated with IODOBEADS or by the chloramine-T method))
T1 sequence: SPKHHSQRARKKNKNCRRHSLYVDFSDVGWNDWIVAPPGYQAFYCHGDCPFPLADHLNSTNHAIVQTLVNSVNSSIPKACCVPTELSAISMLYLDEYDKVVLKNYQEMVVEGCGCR

T2: mouse BMP receptor kinase protein (m-BRK-3) (mouse)
T2 chain: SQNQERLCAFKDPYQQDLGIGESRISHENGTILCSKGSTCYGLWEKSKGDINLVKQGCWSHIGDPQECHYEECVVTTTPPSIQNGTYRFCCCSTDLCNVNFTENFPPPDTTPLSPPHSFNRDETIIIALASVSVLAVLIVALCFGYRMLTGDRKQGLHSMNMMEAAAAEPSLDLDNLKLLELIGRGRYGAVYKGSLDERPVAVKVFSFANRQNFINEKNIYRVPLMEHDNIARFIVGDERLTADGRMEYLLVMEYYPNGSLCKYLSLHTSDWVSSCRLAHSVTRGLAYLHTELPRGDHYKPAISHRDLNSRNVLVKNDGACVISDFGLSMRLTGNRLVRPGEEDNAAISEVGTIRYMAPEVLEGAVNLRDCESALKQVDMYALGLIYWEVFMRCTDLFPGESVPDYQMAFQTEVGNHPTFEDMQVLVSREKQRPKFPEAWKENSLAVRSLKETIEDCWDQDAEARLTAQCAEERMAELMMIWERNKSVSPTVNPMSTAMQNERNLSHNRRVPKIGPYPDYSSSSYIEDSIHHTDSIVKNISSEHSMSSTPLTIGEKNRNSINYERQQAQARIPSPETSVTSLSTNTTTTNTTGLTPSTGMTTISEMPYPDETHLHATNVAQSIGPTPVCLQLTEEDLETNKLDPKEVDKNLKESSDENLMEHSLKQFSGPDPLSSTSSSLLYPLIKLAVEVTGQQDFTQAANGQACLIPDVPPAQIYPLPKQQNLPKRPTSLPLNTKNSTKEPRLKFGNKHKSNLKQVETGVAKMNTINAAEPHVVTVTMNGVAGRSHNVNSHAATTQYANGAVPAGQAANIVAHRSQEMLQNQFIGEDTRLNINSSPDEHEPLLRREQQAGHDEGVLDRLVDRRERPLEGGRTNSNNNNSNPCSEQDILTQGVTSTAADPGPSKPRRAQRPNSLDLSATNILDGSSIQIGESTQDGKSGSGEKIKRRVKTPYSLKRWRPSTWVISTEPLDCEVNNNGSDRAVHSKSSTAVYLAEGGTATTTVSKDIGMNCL

B1: m-BRK-3/BRK-1 complex (receptor)
chain 1: SQNQERLCAFKDPYQQDLGIGESRISHENGTILCSKGSTCYGLWEKSKGDINLVKQGCWSHIGDPQECHYEECVVTTTPPSIQNGTYRFCCCSTDLCNVNFTENFPPPDTTPLSPPHSFNRDETIIIALASVSVLAVLIVALCFGYRMLTGDRKQGLHSMNMMEAAAAEPSLDLDNLKLLELIGRGRYGAVYKGSLDERPVAVKVFSFANRQNFINEKNIYRVPLMEHDNIARFIVGDERLTADGRMEYLLVMEYYPNGSLCKYLSLHTSDWVSSCRLAHSVTRGLAYLHTELPRGDHYKPAISHRDLNSRNVLVKNDGACVISDFGLSMRLTGNRLVRPGEEDNAAISEVGTIRYMAPEVLEGAVNLRDCESALKQVDMYALGLIYWEVFMRCTDLFPGESVPDYQMAFQTEVGNHPTFEDMQVLVSREKQRPKFPEAWKENSLAVRSLKETIEDCWDQDAEARLTAQCAEERMAELMMIWERNKSVSPTVNPMSTAMQNERNLSHNRRVPKIGPYPDYSSSSYIEDSIHHTDSIVKNISSEHSMSSTPLTIGEKNRNSINYERQQAQARIPSPETSVTSLSTNTTTTNTTGLTPSTGMTTISEMPYPDETHLHATNVAQSIGPTPVCLQLTEEDLETNKLDPKEVDKNLKESSDENLMEHSLKQFSGPDPLSSTSSSLLYPLIKLAVEVTGQQDFTQAANGQACLIPDVPPAQIYPLPKQQNLPKRPTSLPLNTKNSTKEPRLKFGNKHKSNLKQVETGVAKMNTINAAEPHVVTVTMNGVAGRSHNVNSHAATTQYANGAVPAGQAANIVAHRSQEMLQNQFIGEDTRLNINSSPDEHEPLLRREQQAGHDEGVLDRLVDRRERPLEGGRTNSNNNNSNPCSEQDILTQGVTSTAADPGPSKPRRAQRPNSLDLSATNILDGSSIQIGESTQDGKSGSGEKIKRRVKTPYSLKRWRPSTWVISTEPLDCEVNNNGSDRAVHSKSSTAVYLAEGGTATTTVSKDIGMNCL
chain 2: QNLDSMLHGTGMKSDLDQKKPENGVTLAPEDTLPFLKCYCSGHCPDDAINNTCITNGHCFAIIEEDDQGETTLTSGCMKYEGSDFQCKDSPKAQLRRTIECCRTNLCNQYLQPTLPPVVIGPFFDGSIRWLVVLISMAVCIVAMIIFSSCFCYKHYCKSISSRGRYNRDLEQDEAFIPVGESLKDLIDQSQSSGSGSGLPLLVQRTIAKQIQMVRQVGKGRYGEVWMGKWRGEKVAVKVFFTTEEASWFRETEIYQTVLMRHENILGFIAADIKGTGSWTQLYLITDYHENGSLYDFLKCATLDTRALLKLAYSAACGLCHLHTEIYGTQGKPAIAHRDLKSKNILIKKNGSCCIADLGLAVKFNSDTNEVDIPLNTRVGTKRYMAPEVLDESLNKNHFQPYIMADIYSFGLIIWEMARRCITGGIVEEYQLPYYNMVPSDPSYEDMREVVCVKRLRPIVSNRWNSDECLRAVLKLMSECWAHNPASRLTALRIKKTLAKMVESQDVKI
B2: m-BRK-3/BRK-2 complex (receptor)
chain 1: SQNQERLCAFKDPYQQDLGIGESRISHENGTILCSKGSTCYGLWEKSKGDINLVKQGCWSHIGDPQECHYEECVVTTTPPSIQNGTYRFCCCSTDLCNVNFTENFPPPDTTPLSPPHSFNRDETIIIALASVSVLAVLIVALCFGYRMLTGDRKQGLHSMNMMEAAAAEPSLDLDNLKLLELIGRGRYGAVYKGSLDERPVAVKVFSFANRQNFINEKNIYRVPLMEHDNIARFIVGDERLTADGRMEYLLVMEYYPNGSLCKYLSLHTSDWVSSCRLAHSVTRGLAYLHTELPRGDHYKPAISHRDLNSRNVLVKNDGACVISDFGLSMRLTGNRLVRPGEEDNAAISEVGTIRYMAPEVLEGAVNLRDCESALKQVDMYALGLIYWEVFMRCTDLFPGESVPDYQMAFQTEVGNHPTFEDMQVLVSREKQRPKFPEAWKENSLAVRSLKETIEDCWDQDAEARLTAQCAEERMAELMMIWERNKSVSPTVNPMSTAMQNERNLSHNRRVPKIGPYPDYSSSSYIEDSIHHTDSIVKNISSEHSMSSTPLTIGEKNRNSINYERQQAQARIPSPETSVTSLSTNTTTTNTTGLTPSTGMTTISEMPYPDETHLHATNVAQSIGPTPVCLQLTEEDLETNKLDPKEVDKNLKESSDENLMEHSLKQFSGPDPLSSTSSSLLYPLIKLAVEVTGQQDFTQAANGQACLIPDVPPAQIYPLPKQQNLPKRPTSLPLNTKNSTKEPRLKFGNKHKSNLKQVETGVAKMNTINAAEPHVVTVTMNGVAGRSHNVNSHAATTQYANGAVPAGQAANIVAHRSQEMLQNQFIGEDTRLNINSSPDEHEPLLRREQQAGHDEGVLDRLVDRRERPLEGGRTNSNNNNSNPCSEQDILTQGVTSTAADPGPSKPRRAQRPNSLDLSATNILDGSSIQIGESTQDGKSGSGEKIKRRVKTPYSLKRWRPSTWVISTEPLDCEVNNNGSDRAVHSKSSTAVYLAEGGTATTTVSKDIGMNCL
chain 2: RKEDSEGTAPAPPQKKLSCQCHHHCPEDSVNSTCSTDGYCFTIIEEDDSGGHLVTKGCLGLEGSDFQCRDTPIPHQRRSIECCTGQDYCNKHLHPTLPPLKNRDFAEGNIHHKALLISVTVCSILLVLIIIFCYFRYKRQEARPRYSIGLEQDETYIPPGESLKDLIEQSQSSGSGSGLPLLVQRTIAKQIQMVKQIGKGRYGEVWMGKWRGEKVAVKVFFTTEEASWFRETEIYQTVLMRHENILGFIAADIKGTGSWTQLYLITDYHENGSLYDYLKSTTLDTKGMLKLAYSSVSGLCHLHTGIFSTQGKPAIAHRDLKSKNILVKKNGTCCIADLGLAVKFISDTNEVDIPPNTRVGTKRYMPPEVLDESLNRNHFQSYIMADMYSFGLILWEIARRCVSGGIVEEYQLPYHDLVPSDPSYEDMREIVCIKRLRPSFPNRWSSDECLRQMGKLMMECWAHNPASRLTALRVKKTLAKMSESQDIKL
B3: [^125 I]-BMP-4, P12644 (ligand)
chain: SPKHHSQRARKKNKNCRRHSLYVDFSDVGWNDWIVAPPGYQAFYCHGDCPFPLADHLNSTNHAIVQTLVNSVNSSIPKACCVPTELSAISMLYLDEYDKVVLKNYQEMVVEGCGCR
modifications: here or on the partner: 125I label (iodinated with IODOBEADS or by the chloramine-T method)

How the values were obtained:
[^125 I]-BMP-4 = molecular target: T1, [^125 I]-BMP-4; test: covalent crosslinking (DSS) to co-transfected COS-1 cells, SDS gel
Source text: COS-1 cells are transfected with the cDNA for m-BRK-3 using the construct pJT6-mBRK-3S, and/or with cDNAs for BRK-1 (using pJT4-J159F) or BRK-2 (using pJT3-BRK-2). The cells are then allowed to bind [^125I]-BMP-4, crosslinked with disuccinimidyl suberate, immunoprecipitated with antibodies to BRK-1 or BRK-2, and subjected to SDS gel electrophoresis. Antisera used are indicated below the lanes: PI, preimmune; 1379, for cells transfected with cDNA for BRK-1; 1380, for cells transfected with cDNA for BRK-2. Position of molecular weight standards is indicated on the left. Left to right, COS-1 cells transfected with BRK-1 plus m-BRK-3 (preimmune serum); BRK-1 alone; BRK-1 plus m-BRK-3; BRK-2 plus m-BRK-3; BRK-2 alone; and BRK-2 plus m-BRK-3 (preimmune serum).
COS-1 cells are transfected with the cDNA for m-BRK-3, using the construct pJT6-mBRK-3 S, and/or with cDNAs for BRK-1 (using pJT4-J159F) or BRK-2 (using pJT3-BRK-2) as described in Example 5. The transfected cells are incubated with [^125I]-BMP-4, crosslinked, and subjected to immunoprecipitation with antibodies to the appropriate type I receptor or preimmune serum as described in example 8, except that DSS is used as the crosslinking agent rather than disuccinimidyl glutarate. In cells transfected with cDNA for BRK-1 alone, a single band is precipitated by antibodies to BRK-1, migrating at an apparent molecular weight of 81 kD. […]

[1] = molecular target: T2, mouse BMP receptor kinase protein …; test: whole cell binding of [125I]-BMP-4 to COS-1 cells transfected with pJT6-mBRK-3S or pJT6-mBRK-3L; settings: remark: other sources report otherwise; scale: times the level of mock transfected cells

| Binder | binding result ([^125 I]-BMP-4) | specific binding, times the level seen with mock transfected cells [1] |
| --- | --- | --- |
| B1 | binds | – |
| B2 | binds | – |
| B3 | – | 4 and 4 to 7 |
